Reference: the supplement of paper PMC10065799, “High-throughput profiling of sequence recognition by tyrosine kinases and SH2 domains using bacterial peptide display” (eLife, 2023)

Legend:
[1] = tested on: AncSZ; assay: phosphorylation enrichment, bacterial display (enrichment ratio); higher = better substrate or ligand; peptides without Tyr show the background
[2] = target: EPHB1 (UniProt P54762); assay: as above
[3] = target: EPHB2 (UniProt P29323); assay: as above
[4] = target: FGFR1 (UniProt P11362); assay: as above
[5] = target: FGFR3 (UniProt P22607); assay: as above
[6] = tested on: Fer (mouse); assay: as above
[7] = target: Fes (UniProt P07332); assay: as above
[8] = target: Fyn (UniProt P06241); assay: as above
[9] = target: Hck (UniProt P08631); assay: as above
[10] = target: Jak2 (UniProt O60674); assay: as above
[11] = target: MERTK (UniProt Q12866); assay: as above
[12] = tested on: c-Abl (mouse); assay: as above
[13] = tested on: c-Src; assay: as above
[14] = target: Grb2 SH2 (UniProt P62993); assay: SH2 binding enrichment of the phosphorylated peptide, bacterial display (enrichment ratio); higher = better substrate or ligand; peptides without Tyr show the background
[15] = target: SHP2-C SH2; assay: as above
[16] = target: c-Src SH2; assay: as above
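Throughout, for SH2 binding enrichment of the phosphorylated peptide, bacterial display: peptide library displayed on the E. coli surface as eCPX fusions, selected cells deep-sequenced, score is each peptide's frequency after selection divided by its frequency in the input.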
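Throughout, for phosphorylation enrichment, bacterial display: 11-residue human phosphosite peptides and single-mutation variants displayed on the E. coli surface, counted by deep sequencing, each peptide's frequency after selection divided by its frequency in the unselected input library; frequency after pTyr selection over input frequency; kinase dosed for 20-30% of maximal phosphorylation in three min.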

Sequence of EPHB2 (P29323 whole entry, looked up): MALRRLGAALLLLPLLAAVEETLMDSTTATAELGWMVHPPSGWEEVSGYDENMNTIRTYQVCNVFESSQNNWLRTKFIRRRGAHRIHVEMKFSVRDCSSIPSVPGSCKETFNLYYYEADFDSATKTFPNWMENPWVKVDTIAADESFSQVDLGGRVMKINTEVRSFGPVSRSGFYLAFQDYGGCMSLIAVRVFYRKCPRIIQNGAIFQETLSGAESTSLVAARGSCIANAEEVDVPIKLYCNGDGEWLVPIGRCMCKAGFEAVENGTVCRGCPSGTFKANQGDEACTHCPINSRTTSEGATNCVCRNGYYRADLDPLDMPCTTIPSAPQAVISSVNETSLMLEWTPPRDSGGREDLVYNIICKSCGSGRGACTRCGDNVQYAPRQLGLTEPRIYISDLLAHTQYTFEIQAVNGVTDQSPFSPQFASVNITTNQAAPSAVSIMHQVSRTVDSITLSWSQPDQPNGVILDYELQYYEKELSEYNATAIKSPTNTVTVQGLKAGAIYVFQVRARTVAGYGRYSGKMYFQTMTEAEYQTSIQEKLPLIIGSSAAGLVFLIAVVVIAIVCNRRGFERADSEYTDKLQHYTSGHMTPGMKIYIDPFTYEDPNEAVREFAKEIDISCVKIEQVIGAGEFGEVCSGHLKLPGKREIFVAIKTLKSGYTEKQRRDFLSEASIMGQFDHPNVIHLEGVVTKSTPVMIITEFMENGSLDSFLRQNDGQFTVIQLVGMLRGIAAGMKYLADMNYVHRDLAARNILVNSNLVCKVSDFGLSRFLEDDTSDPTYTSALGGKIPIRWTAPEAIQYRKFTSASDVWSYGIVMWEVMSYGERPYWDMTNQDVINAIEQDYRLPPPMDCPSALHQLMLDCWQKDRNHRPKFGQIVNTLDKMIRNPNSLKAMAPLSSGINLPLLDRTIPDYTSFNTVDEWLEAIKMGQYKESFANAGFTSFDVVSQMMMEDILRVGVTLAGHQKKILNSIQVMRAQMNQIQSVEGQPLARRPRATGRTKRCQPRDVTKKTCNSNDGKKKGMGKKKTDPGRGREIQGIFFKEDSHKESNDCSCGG
Sequence of Hck (P08631 whole entry, looked up): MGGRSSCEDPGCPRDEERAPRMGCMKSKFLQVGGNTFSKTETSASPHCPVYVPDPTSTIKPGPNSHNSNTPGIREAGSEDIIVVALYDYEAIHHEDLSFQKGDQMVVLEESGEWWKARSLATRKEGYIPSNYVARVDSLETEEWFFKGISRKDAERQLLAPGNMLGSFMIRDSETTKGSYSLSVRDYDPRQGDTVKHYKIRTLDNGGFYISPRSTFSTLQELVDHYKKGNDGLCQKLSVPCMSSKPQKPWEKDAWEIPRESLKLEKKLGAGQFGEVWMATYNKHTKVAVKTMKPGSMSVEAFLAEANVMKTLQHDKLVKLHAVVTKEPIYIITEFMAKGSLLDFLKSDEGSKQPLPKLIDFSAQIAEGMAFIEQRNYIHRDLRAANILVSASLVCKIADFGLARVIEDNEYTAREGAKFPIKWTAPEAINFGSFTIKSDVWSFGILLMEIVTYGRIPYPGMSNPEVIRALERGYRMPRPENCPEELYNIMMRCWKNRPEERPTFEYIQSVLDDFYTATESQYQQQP
Sequence of Jak2 (O60674 whole entry, looked up): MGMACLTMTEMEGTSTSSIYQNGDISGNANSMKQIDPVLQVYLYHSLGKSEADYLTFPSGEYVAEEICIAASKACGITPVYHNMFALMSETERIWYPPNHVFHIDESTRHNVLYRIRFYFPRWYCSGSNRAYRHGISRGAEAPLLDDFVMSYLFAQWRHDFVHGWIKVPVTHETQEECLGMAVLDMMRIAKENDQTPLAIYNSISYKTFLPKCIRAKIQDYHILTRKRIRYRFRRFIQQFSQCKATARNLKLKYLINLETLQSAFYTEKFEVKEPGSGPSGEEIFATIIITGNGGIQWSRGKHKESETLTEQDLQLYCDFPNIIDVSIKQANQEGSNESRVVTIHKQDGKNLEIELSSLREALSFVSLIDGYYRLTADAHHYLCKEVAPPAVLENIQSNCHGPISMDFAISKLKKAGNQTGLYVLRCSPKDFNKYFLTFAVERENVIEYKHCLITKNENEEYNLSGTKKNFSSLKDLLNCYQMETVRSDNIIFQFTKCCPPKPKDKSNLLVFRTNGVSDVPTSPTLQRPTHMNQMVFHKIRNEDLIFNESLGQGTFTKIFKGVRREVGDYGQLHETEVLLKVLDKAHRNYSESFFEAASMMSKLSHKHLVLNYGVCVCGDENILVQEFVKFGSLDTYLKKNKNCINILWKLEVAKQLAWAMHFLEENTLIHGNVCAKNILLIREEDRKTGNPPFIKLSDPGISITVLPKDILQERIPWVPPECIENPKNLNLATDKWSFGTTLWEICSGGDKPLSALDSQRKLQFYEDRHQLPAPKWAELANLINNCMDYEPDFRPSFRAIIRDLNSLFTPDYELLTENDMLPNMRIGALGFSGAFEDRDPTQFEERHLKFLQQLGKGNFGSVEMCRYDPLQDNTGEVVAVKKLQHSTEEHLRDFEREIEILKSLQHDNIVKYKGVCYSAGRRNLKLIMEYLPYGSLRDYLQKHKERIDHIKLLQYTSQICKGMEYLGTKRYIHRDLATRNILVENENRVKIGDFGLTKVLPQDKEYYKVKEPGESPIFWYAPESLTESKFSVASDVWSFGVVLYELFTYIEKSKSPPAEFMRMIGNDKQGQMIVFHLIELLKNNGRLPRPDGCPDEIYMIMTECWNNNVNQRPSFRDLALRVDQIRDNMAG
Sequence of MERTK (Q12866 whole entry, looked up): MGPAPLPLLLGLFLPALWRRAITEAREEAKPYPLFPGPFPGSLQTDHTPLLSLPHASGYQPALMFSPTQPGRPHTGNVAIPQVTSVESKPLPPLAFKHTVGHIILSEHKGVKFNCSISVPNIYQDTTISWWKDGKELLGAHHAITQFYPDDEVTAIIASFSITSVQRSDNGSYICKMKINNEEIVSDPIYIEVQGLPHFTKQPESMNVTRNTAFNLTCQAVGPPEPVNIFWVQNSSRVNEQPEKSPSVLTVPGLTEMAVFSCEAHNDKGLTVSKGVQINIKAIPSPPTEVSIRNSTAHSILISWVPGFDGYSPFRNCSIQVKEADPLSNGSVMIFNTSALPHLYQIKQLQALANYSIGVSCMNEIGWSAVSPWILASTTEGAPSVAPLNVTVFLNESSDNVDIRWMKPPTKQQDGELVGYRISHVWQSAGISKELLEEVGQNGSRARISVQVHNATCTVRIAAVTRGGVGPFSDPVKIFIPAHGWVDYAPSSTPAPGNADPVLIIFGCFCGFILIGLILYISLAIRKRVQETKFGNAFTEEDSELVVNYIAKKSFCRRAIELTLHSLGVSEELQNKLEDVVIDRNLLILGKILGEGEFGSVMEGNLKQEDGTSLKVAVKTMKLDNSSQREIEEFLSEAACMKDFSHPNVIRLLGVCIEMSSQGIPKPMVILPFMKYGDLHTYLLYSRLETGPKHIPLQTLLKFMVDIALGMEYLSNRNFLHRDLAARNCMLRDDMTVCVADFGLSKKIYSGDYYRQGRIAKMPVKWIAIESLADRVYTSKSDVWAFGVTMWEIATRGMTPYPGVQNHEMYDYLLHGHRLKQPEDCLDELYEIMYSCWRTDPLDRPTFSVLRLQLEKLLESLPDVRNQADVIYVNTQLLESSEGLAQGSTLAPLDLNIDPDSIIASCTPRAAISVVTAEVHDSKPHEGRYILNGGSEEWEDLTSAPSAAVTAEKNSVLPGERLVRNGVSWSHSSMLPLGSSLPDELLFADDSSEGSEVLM
Sequence of Grb2 SH2 (P62993 whole entry, looked up): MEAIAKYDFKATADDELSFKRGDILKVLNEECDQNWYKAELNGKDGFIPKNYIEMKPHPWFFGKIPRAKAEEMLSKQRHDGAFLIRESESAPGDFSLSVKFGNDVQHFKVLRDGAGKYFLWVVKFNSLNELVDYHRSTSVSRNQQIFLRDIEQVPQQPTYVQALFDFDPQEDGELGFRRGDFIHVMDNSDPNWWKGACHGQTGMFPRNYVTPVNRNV
Sequence of FGFR1 (P11362 whole entry, looked up): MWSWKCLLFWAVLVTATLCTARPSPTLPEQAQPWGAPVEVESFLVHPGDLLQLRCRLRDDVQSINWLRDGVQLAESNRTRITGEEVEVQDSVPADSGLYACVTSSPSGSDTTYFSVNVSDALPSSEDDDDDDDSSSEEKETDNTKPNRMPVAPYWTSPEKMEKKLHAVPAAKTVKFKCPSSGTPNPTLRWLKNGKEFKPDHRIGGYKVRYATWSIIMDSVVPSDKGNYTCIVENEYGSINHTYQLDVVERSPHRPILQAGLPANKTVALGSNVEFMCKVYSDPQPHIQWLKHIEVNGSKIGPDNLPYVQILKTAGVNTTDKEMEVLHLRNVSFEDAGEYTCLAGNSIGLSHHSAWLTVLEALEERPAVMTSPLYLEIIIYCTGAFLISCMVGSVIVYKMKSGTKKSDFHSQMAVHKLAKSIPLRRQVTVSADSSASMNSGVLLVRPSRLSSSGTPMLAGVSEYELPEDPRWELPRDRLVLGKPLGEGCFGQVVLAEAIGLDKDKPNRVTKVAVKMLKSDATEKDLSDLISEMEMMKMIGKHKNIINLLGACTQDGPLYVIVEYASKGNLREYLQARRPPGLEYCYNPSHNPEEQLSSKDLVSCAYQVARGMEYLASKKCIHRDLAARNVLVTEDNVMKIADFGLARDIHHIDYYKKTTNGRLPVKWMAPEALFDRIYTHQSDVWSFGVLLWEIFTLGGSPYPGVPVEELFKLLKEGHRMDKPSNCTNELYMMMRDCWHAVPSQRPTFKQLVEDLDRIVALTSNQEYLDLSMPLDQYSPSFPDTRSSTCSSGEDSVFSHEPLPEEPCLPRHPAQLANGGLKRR

| Sequence | phosphorylation enrichment [1] | phosphorylation enrichment [2] | phosphorylation enrichment [3] | phosphorylation enrichment [4] | phosphorylation enrichment [5] | phosphorylation enrichment [6] | phosphorylation enrichment [7] | phosphorylation enrichment [8] | phosphorylation enrichment [9] | phosphorylation enrichment [10] | phosphorylation enrichment [11] | phosphorylation enrichment [12] | phosphorylation enrichment [13] | SH2 binding enrichment [14] | SH2 binding enrichment [15] | SH2 binding enrichment [16] |
| --- | --- | --- | --- | --- | --- | --- | --- | --- | --- | --- | --- | --- | --- | --- | --- | --- |
| CYCSWYRGWAP [TIMP3_Y195_G190C] | 1.03 | 0.628 | 0.632 | 1.19 | 1.02 | 3.41 | 1.08 | 0.721 | 1.01 | 1.04 | 0.733 | 0.882 | 3.7 | 1.31 | 1.26 | 1.08 |
| HHTNEYEFDEL [TGM1_Y134_D132N_YF] | 1.56 | 0.691 | 1.01 | 0.702 | 0.832 | 0.558 | 1.42 | 1.13 | 0.719 | 0.884 | 0.607 | 0.624 | 0.939 | 0.678 | 0.783 | 0.828 |
| KLFFIYTSGTT [SLC27A4_Y245_YF] | 1.16 | 0.633 | 0.646 | 0.531 | 0.813 | 0.529 | 1.19 | 0.435 | 0.424 | 1.1 | 0.398 | 0.967 | 0.345 | 0.801 | 0.664 | 0.478 |
| HNLDFYKQTTN [FGFR3_Y648_K650Q_YF] | 0.948 | 0.623 | 0.494 | 0.581 | 0.631 | 0.409 | 1.35 | 0.368 | 0.455 | 0.793 | 0.581 | 0.683 | 0.409 | 0.874 | 0.488 | 0.395 |
| KASRKYYAMKI [AKT3_Y173_G171R] | 0.416 | 0.22 | 0.304 | 0.481 | 0.353 | 0.589 | 0.476 | 0.267 | 0.339 | 0.484 | 0.5 | 0.393 | 0.257 | 1.03 | 0.79 | 0.652 |
| REEKNYKLKET [BCLAF1_Y459] | 0.996 | 0.691 | 0.799 | 0.733 | 0.714 | 1.3 | 1.21 | 0.843 | 0.861 | 1.5 | 1.14 | 1.16 | 1.28 | 1.16 | 0.956 | 0.627 |
| LGQRIYQYIQS [DYRK1B_Y271] | 1.54 | 20.9 | 12.5 | 5.29 | 3.3 | 18.1 | 2.86 | 4.18 | 8.12 | 1.3 | 13.5 | 2.74 | 5.08 | 1.02 | 1.2 | 4.11 |
| MASISYDFCRV [BST2_Y6_T4I_YF] | 1.24 | 0.692 | 0.712 | 0.496 | 0.824 | 1.59 | 1.17 | 0.554 | 0.629 | 1.03 | 0.653 | 0.908 | 0.497 | 0.764 | 0.666 | 0.672 |
| LDPMVYMNDKS [PTK2B_Y834] | 1.09 | 0.727 | 0.595 | 0.727 | 0.586 | 0.678 | 1.28 | 0.55 | 0.386 | 1.25 | 0.648 | 0.843 | 0.669 | 2.36 | 0.792 | 1.01 |
| TKFRNYLIPKG [CYP2C8_Y379] | 0.47 | 0.374 | 0.421 | 0.381 | 0.425 | 0.345 | 0.565 | 0.365 | 0.429 | 0.592 | 0.374 | 0.573 | 0.443 | 1.1 | 0.92 | 0.631 |
| TIQIMFGCDVG [HLA-A_Y123_Y123F] | 1.28 | 0.905 | 0.801 | 0.645 | 1.14 | 0.749 | 1.86 | 0.545 | 0.619 | 1.42 | 0.503 | 1.01 | 0.548 | 0.861 | 0.84 | 0.515 |
| DGTESYLTVSS [PLK1_Y462] | 0.89 | 0.447 | 0.467 | 0.454 | 0.59 | 0.487 | 0.954 | 0.453 | 0.443 | 0.845 | 0.387 | 0.687 | 0.465 | 0.628 | 0.713 | 0.475 |
| RTLIRYAKLGN [BEST1_Y131_N133K] | 1.4 | 0.854 | 0.775 | 0.632 | 0.612 | 0.561 | 1.27 | 0.848 | 0.849 | 1.23 | 1.02 | 1.07 | 1.02 | 1.14 | 1.11 | 0.765 |
| TGDVQYRSSVR [FREM2_Y2158] | 0.529 | 0.292 | 0.423 | 0.468 | 0.397 | 0.385 | 0.534 | 0.331 | 0.357 | 0.408 | 0.398 | 0.459 | 0.357 | 1.02 | 0.631 | 0.433 |
| WKESWYSMRKM [FGB_Y475_G472E] | 1.05 | 0.714 | 0.669 | 0.513 | 0.738 | 0.535 | 1.34 | 0.554 | 0.591 | 1.33 | 0.544 | 0.792 | 0.672 | 1.08 | 0.969 | 0.708 |
| VVSMNYRVGAL [BCHE_Y174] | 0.703 | 0.511 | 0.445 | 0.524 | 0.534 | 0.333 | 0.802 | 0.336 | 0.43 | 0.722 | 0.362 | 0.556 | 0.342 | 0.475 | 0.771 | 0.446 |
| RSSKTYLKTRS [LPL_Y329_M328T] | 0.739 | 0.609 | 0.561 | 0.499 | 0.583 | 0.708 | 0.967 | 0.593 | 0.706 | 0.596 | 0.985 | 0.853 | 0.856 | 1.23 | 0.875 | 0.758 |

| Sequence | phosphorylation enrichment [1] | phosphorylation enrichment [2] | phosphorylation enrichment [3] | phosphorylation enrichment [4] | phosphorylation enrichment [5] | phosphorylation enrichment [6] | phosphorylation enrichment [7] | phosphorylation enrichment [8] | phosphorylation enrichment [9] | phosphorylation enrichment [10] | phosphorylation enrichment [11] | phosphorylation enrichment [12] | phosphorylation enrichment [13] | SH2 binding enrichment [14] | SH2 binding enrichment [15] | SH2 binding enrichment [16] |
| --- | --- | --- | --- | --- | --- | --- | --- | --- | --- | --- | --- | --- | --- | --- | --- | --- |
| HNELYYEAAEH [VANGL1_Y345_E347A] | 1.56 | 1.12 | 1.06 | 5.49 | 4.38 | 7.27 | 1.44 | 1.52 | 2.1 | 1.16 | 5.06 | 0.854 | 1.79 | 0.954 | 0.606 | 0.777 |
| GSIQQYIFKQE [PRG4_Y1271_YF] | 0.836 | 0.476 | 0.573 | 0.531 | 0.574 | 0.451 | 0.738 | 0.429 | 0.537 | 0.508 | 0.452 | 0.499 | 0.545 | 0.754 | 0.469 | 0.362 |
| DENWFYTQAAS [RPS19_Y54_R56Q] | 1.15 | 0.49 | 0.877 | 0.455 | 0.682 | 0.483 | 1.06 | 0.388 | 0.392 | 0.876 | 0.395 | 0.62 | 0.472 | 0.906 | 0.726 | 0.881 |
| FETSHYPASPD [CTNND2_Y1217_YF] | 0.52 | 0.483 | 0.408 | 0.475 | 0.508 | 0.486 | 0.77 | 0.361 | 0.435 | 0.553 | 0.323 | 0.463 | 0.31 | 1.03 | 0.992 | 0.383 |
| CTTIHDNYMCN [TP53_Y234_Y234D] | 0.817 | 0.521 | 0.556 | 0.541 | 0.539 | 0.54 | 1 | 0.435 | 0.546 | 0.799 | 0.507 | 0.551 | 0.44 | 1.21 | 0.837 | 0.922 |
| YVPSNYVAEDR [FRK_Y104_I100V] | 0.886 | 0.53 | 0.424 | 0.441 | 0.632 | 0.497 | 0.754 | 0.411 | 0.382 | 0.655 | 0.414 | 0.584 | 0.392 | 0.735 | 0.738 | 0.608 |
| DVCKNYTEAKD [ALB_Y343_A344T] | 0.92 | 0.555 | 0.581 | 0.51 | 0.613 | 0.511 | 0.963 | 0.497 | 0.494 | 0.712 | 0.5 | 0.549 | 0.385 | 0.824 | 0.674 | 0.807 |
| DFLSSYSAVNQ [OAT_Y85] | 1.04 | 0.658 | 0.493 | 0.433 | 0.698 | 1.17 | 0.947 | 0.427 | 0.531 | 0.997 | 0.558 | 0.703 | 0.61 | 1.1 | 3.8 | 2.01 |
| YAANYYKLLGN [ROR2_Y646_D644N] | 0.566 | 0.566 | 0.546 | 1.76 | 1.35 | 0.506 | 0.609 | 0.46 | 0.406 | 0.917 | 0.832 | 0.579 | 0.462 | 0.872 | 0.685 | 0.501 |
| YGCGMYSHLQG [LGR4_Y848_D844G] | 1.2 | 1.06 | 1.07 | 1.06 | 0.998 | 1.24 | 1.07 | 1.51 | 4.44 | 0.723 | 5.25 | 1.49 | 2.87 | 0.854 | 0.991 | 1.96 |
| SVVVPYEPPEG [TP53_Y220_V225G] | 1.02 | 0.685 | 0.492 | 0.533 | 0.714 | 0.445 | 0.929 | 0.525 | 0.503 | 1.01 | 0.559 | 0.633 | 0.446 | 1.03 | 0.997 | 0.67 |
| AEPNIYQEKLS [USP54_Y1233_D1231N] | 0.763 | 0.401 | 0.462 | 0.442 | 0.505 | 0.34 | 0.748 | 0.727 | 0.778 | 0.948 | 0.339 | 0.802 | 0.679 | 1.12 | 0.916 | 0.808 |
| FFRNVYHLASV [RBL1_Y796_K794N_YF] | 0.803 | 0.509 | 0.515 | 0.486 | 0.532 | 0.403 | 0.763 | 1.25 | 0.596 | 0.575 | 0.404 | 0.51 | 0.862 | 0.563 | 0.629 | 1.79 |
| ERLWVYGMSSS [F8_Y1728_D1727V] | 1.17 | 0.669 | 0.612 | 0.529 | 0.729 | 0.539 | 1.61 | 0.565 | 0.574 | 1.18 | 0.395 | 0.691 | 0.556 | 0.872 | 0.688 | 0.639 |
| DLDATYRPMFS [JUP_Y701_M697L_YF] | 0.722 | 0.636 | 0.557 | 0.491 | 0.557 | 0.489 | 0.85 | 0.522 | 0.686 | 0.673 | 0.33 | 0.662 | 0.542 | 0.72 | 0.713 | 0.5 |
| HKETGYVVERP [BCLAF1_Y466_L461H] | 0.746 | 0.475 | 0.502 | 0.582 | 0.656 | 0.439 | 1.36 | 0.497 | 0.448 | 1.14 | 0.445 | 1.28 | 0.652 | 0.747 | 0.401 | 0.394 |
